The results in this text go back to article PMC3553976 (Nucleic Acids Research, 2012).

To fix the notation:
B3: U2AF65^UHM, C-terminal U2AF homology motif domain of U2AF65 (residues 372–475) (domain or fragment)
chain: GHPTEVLCLMNMVLPEELLDDEEYEEIVEDVRDECSKYGLVKSIEIPRPVDGVEVPGCGKIFVEFTSVFDCQKAMQGLTGRKFANRVVVTKYCDPDSYHRRDFW

Experiment [1] addresses T1, U2AF65^RRM123 (residues 147–475) (human, UniProt P26368 147-475). The experiment is described as follows: native gel or EMSA. (Mobility shift assays separate free from complexed probe on a gel.)
Target sequence in this assay (P26368 147-475, one chain of several): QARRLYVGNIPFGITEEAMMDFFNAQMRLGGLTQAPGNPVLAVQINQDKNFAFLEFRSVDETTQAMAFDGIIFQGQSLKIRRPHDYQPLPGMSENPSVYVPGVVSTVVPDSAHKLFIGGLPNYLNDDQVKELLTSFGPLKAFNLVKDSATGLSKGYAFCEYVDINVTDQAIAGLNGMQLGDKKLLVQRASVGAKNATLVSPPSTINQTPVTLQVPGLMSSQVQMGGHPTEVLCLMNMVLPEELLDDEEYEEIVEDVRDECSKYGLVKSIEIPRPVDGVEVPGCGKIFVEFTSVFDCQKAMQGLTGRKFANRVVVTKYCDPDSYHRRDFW
Experiment [2] addresses T2, SF1^HH (residues 27–145) (human, UniProt Q15637 27-145).
T2 sequence: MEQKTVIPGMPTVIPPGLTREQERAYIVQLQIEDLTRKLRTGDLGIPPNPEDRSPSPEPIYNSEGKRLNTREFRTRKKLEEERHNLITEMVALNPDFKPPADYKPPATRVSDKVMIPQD
The experiment is described as follows: ITC. In general terms: ITC needs no label: the signal is the heat of the interaction.

For experiment [3], the target named is T3, SF1^NTD (residues 1–145) (human, UniProt Q15637 1-145). The experiment is described as follows: ITC.
The target of experiment [4] is T3, SF1^NTD (residues 1–145). As to the kind of experiment: ITC. This is another data set of the same source.
The target in experiment [5] is T1, U2AF65^RRM123 (residues 147–475). The experiment is described as follows: ITC.
Experiment [6] concerns the target B3. As to the kind of experiment: ITC.

Read-outs that look alike come from different tables or passages of the source.

B1: His6-tagged SF1^2-320 (domain or fragment, human, UniProt Q15637 2-320, looked up)
chain: ATGANATPLDFPSKKRKRSRWNQDTMEQKTVIPGMPTVIPPGLTREQERAYIVQLQIEDLTRKLRTGDLGIPPNPEDRSPSPEPIYNSEGKRLNTREFRTRKKLEEERHNLITEMVALNPDFKPPADYKPPATRVSDKVMIPQDEYPEINFVGLLIGPRGNTLKNIEKECNAKIMIRGKGSVKEGKVGRKDGQMLPGEDEPLHALVTANTMENVKKAVEQIRNILKQGIETPEDQNDLRKMQLRELARLNGTLREDDNRILRPWQSSETRSITNTTVCTKCGGAGHIASDCKFQRPGDPQSAQDKARMDKEYLSLMAEL
B1: in experiment [1], the binding result is given as “binds”.

B2: SF1^2-320 with the α1–α2 linker deleted (Δ75–90) (domain or fragment, human)
chain: ATGANATPLDFPSKKRKRSRWNQDTMEQKTVIPGMPTVIPPGLTREQERAYIVQLQIEDLTRKLRTGDLGIPPGTGKRLNTREFRTRKKLEEERHNLITEMVALNPDFKPPADYKPPATRVSDKVMIPQDEYPEINFVGLLIGPRGNTLKNIEKECNAKIMIRGKGSVKEGKVGRKDGQMLPGEDEPLHALVTANTMENVKKAVEQIRNILKQGIETPEDQNDLRKMQLRELARLNGTLREDDNRILRPWQSSETRSITNTTVCTKCGGAGHIASDCKFQRPGDPQSAQDKARMDKEYLSLMAEL
As for B2, the binding result in experiment [1] is on record as “binds”. On to B3, for which the Kd in experiment [2] is more than 100000 nM; in experiment [3] it was 85 nM; in experiment [4], 84 ± 23 nM.

B4: SF1 (residues 1–260) (domain or fragment, human, UniProt Q15637 1-260, looked up)
chain: MATGANATPLDFPSKKRKRSRWNQDTMEQKTVIPGMPTVIPPGLTREQERAYIVQLQIEDLTRKLRTGDLGIPPNPEDRSPSPEPIYNSEGKRLNTREFRTRKKLEEERHNLITEMVALNPDFKPPADYKPPATRVSDKVMIPQDEYPEINFVGLLIGPRGNTLKNIEKECNAKIMIRGKGSVKEGKVGRKDGQMLPGEDEPLHALVTANTMENVKKAVEQIRNILKQGIETPEDQNDLRKMQLRELARLNGTLREDDNR
In turn, B4 displayed an equilibrium dissociation constant (Kd) in experiment [5] of 114 ± 23 nM.

B5: pSF1, phosphorylated SF1 (residues 1–260) (domain or fragment)
chain: MATGANATPLDFPSKKRKRSRWNQDTMEQKTVIPGMPTVIPPGLTREQERAYIVQLQIEDLTRKLRTGDLGIPPNPEDRSPSPEPIYNSEGKRLNTREFRTRKKLEEERHNLITEMVALNPDFKPPADYKPPATRVSDKVMIPQDEYPEINFVGLLIGPRGNTLKNIEKECNAKIMIRGKGSVKEGKVGRKDGQMLPGEDEPLHALVTANTMENVKKAVEQIRNILKQGIETPEDQNDLRKMQLRELARLNGTLREDDNR
modifications: phosphoserine at 80 and 82
In turn, B5 came in with a Kd in experiment [5] of 96 ± 32 nM.

In experiment [6], MATGANATPLDFPSKKRKRSRWNQD (peptide, UniProt Q15637 1-25, looked up) [SF1^ULM (residues 1–25)] gave a Kd of 127 ± 48 nM.

B6: SF1^2-320 with helix α1 deleted (Δ35–68) (domain or fragment, human)
chain: ATGANATPLDFPSKKRKRSRWNQDTMEQKTVIPGTDLGIPPNPEDRSPSPEPIYNSEGKRLNTREFRTRKKLEEERHNLITEMVALNPDFKPPADYKPPATRVSDKVMIPQDEYPEINFVGLLIGPRGNTLKNIEKECNAKIMIRGKGSVKEGKVGRKDGQMLPGEDEPLHALVTANTMENVKKAVEQIRNILKQGIETPEDQNDLRKMQLRELARLNGTLREDDNRILRPWQSSETRSITNTTVCTKCGGAGHIASDCKFQRPGDPQSAQDKARMDKEYLSLMAEL
With B6, the binding result in experiment [1] was “binds”.

B7: SF1-Δα2, SF1^2-320 with helix α2 deleted (Δ96–128) (domain or fragment, human)
chain: ATGANATPLDFPSKKRKRSRWNQDTMEQKTVIPGMPTVIPPGLTREQERAYIVQLQIEDLTRKLRTGDLGIPPNPEDRSPSPEPIYNSEGKRLNGTYKPPATRVSDKVMIPQDEYPEINFVGLLIGPRGNTLKNIEKECNAKIMIRGKGSVKEGKVGRKDGQMLPGEDEPLHALVTANTMENVKKAVEQIRNILKQGIETPEDQNDLRKMQLRELARLNGTLREDDNRILRPWQSSETRSITNTTVCTKCGGAGHIASDCKFQRPGDPQSAQDKARMDKEYLSLMAEL
Regarding B7, the binding result in experiment [1] was “binds”.

In general, Kd refers to the free concentration of one partner at which half of the binding sites on the other are occupied at equilibrium, for simple one-to-one binding. High values mean a looser complex, low ones a tighter complex.
